Earlier results as cited in paper PMC3897602 (PLoS ONE, 2014).

Conditions: in vivo, po

biotinylation of exendin-4: biotinylated exendin-4 reported by Jin et al
apparent bioavailability: 3.95%
